Source: the supplement of paper PMC10567573

B1: RSPH3 (parent)
chain: QRLEEQERRHREEKERRKKQQWEI
B2: KRT18 (parent)
chain: PQVRDWSHYFKIIEDLRAQIFANT

Variants of: B1
Test: protein stability index of a GFP-peptide fusion (GPS, HEK-293T) (PSI 1-6); higher = more stable
Conditions: c terminus: a fixed tail appended
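Note: lentivirally expressed fusions sorted by FACS into six bins by GFP to DsRed ratio, PSI derived from sequencing read proportions per bin multiplied by bin number.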

| Variant | protein stability index |
| --- | --- |
| QRLEEQERRHREEKERRKKQQWFI | 3.42 |
| QRLEEQERRHREEKERRKKQQWHI | 4.39 |
| QRLEEQERRHREEKERRKKQQWCI | 4.03 |
| QRLEEQERRHREEKERRKKQQWII | 3.6 |
| QRLEEQERRHREEKERRKKQQWPI | 4.26 |
| QRLEEQERRHREEKERRKKQQWWI | 3.67 |
| QRLEEQERRHREEKERRKKQQWNI | 4.19 |
| QRLEEQERRHREEKERRKKQQWQI | 3.95 |
| QRLEEQERRHREEKERRKKQQWSI | 3.9 |
| QRLEEQERRHREEKERRKKQQWMI | 4.2 |
| QRLEEQERRHREEKERRKKQQWRI | 4.69 |
| QRLEEQERRHREEKERRKKQQWTI | 3.96 |
| QRLEEQERRHREEKERRKKQQWAI | 3.51 |
| QRLEEQERRHREEKERRKKQQWGI | 4.46 |
| QRLEEQERRHREEKERRKKQQWDI | 4.91 |
| QRLEEQERRHREEKERRKKQQWLI | 4.21 |
| QRLEEQERRHREEKERRKKQQWVI | 3.18 |
| QRLEEQERRHREEKERRKKQQWYI | 4.09 |
| QRLEEQERRHREEKERRKKQQWKI | 4.42 |
| QRLEEQERRHREEKERRKWQQWEI | 3.89 |
| QRLEEQERRHREEKERRKNQQWEI | 4.59 |
| QRLEEQERRHREEKERRKFQQWEI | 4.02 |
| QRLEEQERRHREEKERRKTQQWEI | 4.87 |

| Variant | protein stability index |
| --- | --- |
| QRLEEQERRHREEKERRKPQQWEI | 4.62 |
| QRLEEQERRHREEKERRKVQQWEI | 4.59 |
| QRLEEQERRHREEKERRKGQQWEI | 4.33 |
| QRLEEQERRHREEKERRKRQQWEI | 4.78 |
| QRLEEQERRHREEKERRKYQQWEI | 4.47 |
| QRLEEQERRHREEKERRKLQQWEI | 4.59 |
| QRLEEQERRHREEKERRKCQQWEI | 4.9 |
| QRLEEQERRHREEKERRKEQQWEI | 4.98 |
| QRLEEQERRHREEKERRKSQQWEI | 4.77 |
| QRLEEQERRHREEKERRKMQQWEI | 4.79 |
| QRLEEQERRHREEKERRKIQQWEI | 4.08 |
| QRLEEQERRHREEKERRKQQQWEI | 4.64 |
| QRLEEQERRHREEKERRKDQQWEI | 4.98 |
| QRLEEQERRHREEKERRKHQQWEI | 4.36 |
| QRLEEQERRHREEKERVKKQQWEI | 4.56 |
| QRLEEQERRHREEKERTKKQQWEI | 4.62 |
| QRLEEQERRHREEKERYKKQQWEI | 4.96 |
| QRLEEQERRHREEKERWKKQQWEI | 4.02 |
| QRLEEQERRHREEKERSKKQQWEI | 4.72 |
| QRLEEQERRHREEKERRKKQQDEI | 5.52 |
| QRLEEQERRHREEKERRKKQQMEI | 4.88 |
| QRLEEQERRHREEKERRKKQQKEI | 5 |
| QRLEEQERRHREEKERRKKQQYEI | 4.88 |

| Variant | protein stability index |
| --- | --- |
| QRLEEQERRHREEKERRKKQQFEI | 4.97 |
| QRLEEQERRHREEKERRKKQQTEI | 5.67 |
| QRLEEQERRHREEKERRKKQQHEI | 4.97 |
| QRLEEQERRHREEKERRKKQQCEI | 5.21 |
| QRLEEQERRHREEKERRKKQQPEI | 4.64 |
| QRLEEQERRHREEKERRKKQQAEI | 5.13 |
| QRLEEQERRHREEKERRKKQQREI | 5.43 |
| QRLEEQERRHREEKERRKKQQLEI | 5.22 |
| QRLEEQERRHREEKERRKKQQNEI | 5.52 |
| QRLEEQERRHREEKERRKKQQQEI | 5.15 |
| QRLEEQERRHREEKERRKKQQIEI | 4.38 |
| QRLEEQERRHREEKERRKKQQVEI | 5.34 |
| QRLEEQERRHREEKERRKKQQGEI | 5.48 |
| QRLEEQERRHREEKERRKKQQEEI | 5.75 |
| QRLEEQERRHREEKERRKKQQSEI | 5.35 |
| QRLEEQERRHREEKERREKQQWEI | 4.6 |
| QRLEEQERRHREEKERRLKQQWEI | 4.27 |
| QRLEEQERRHREEKERRNKQQWEI | 4.28 |
| QRLEEQERRHREEKERRDKQQWEI | 4.59 |
| QRLEEQERRHREEKERRMKQQWEI | 4.6 |
| QRLEEQERRHREEKERRQKQQWEI | 4.83 |
| QRLEEQERRHREEKERRRKQQWEI | 3.87 |
| QRLEEQERRHREEKERRPKQQWEI | 4.72 |

| Variant | protein stability index |
| --- | --- |
| QRLEEQERRHREEKERRIKQQWEI | 4.94 |
| QRLEEQERRHREEKERRVKQQWEI | 4.18 |
| QRLEEQERRHREEKERRAKQQWEI | 4.46 |
| QRLEEQERRHREEKERRCKQQWEI | 4.32 |
| QRLEEQERRHREEKERRWKQQWEI | 4.03 |
| QRLEEQERRHREEKERRTKQQWEI | 4.68 |
| QRLEEQERRHREEKERRYKQQWEI | 3.59 |
| QRLEEQERRHREEKERRGKQQWEI | 4.71 |
| QRLEEQERRHREEKERRSKQQWEI | 4.49 |
| QRLEEQERRHREEKERRHKQQWEI | 4.56 |
| QRLEEQERRHREEKERRFKQQWEI | 4.43 |
| QRLEEQERRHREEKERRKKQGWEI | 4.61 |
| QRLEEQERRHREEKERRKKQIWEI | 4.03 |
| QRLEEQERRHREEKERRKKQWWEI | 4.48 |
| QRLEEQERRHREEKERRKKQSWEI | 3.71 |
| QRLEEQERRHREEKERRKKQVWEI | 4.01 |
| QRLEEQERRHREEKERRKKQFWEI | 4.46 |
| QRLEEQERRHREEKERRKKQRWEI | 4.46 |
| QRLEEQERRHREEKERRKKQKWEI | 4.71 |
| QRLEEQERRHREEKERRKKQMWEI | 4.02 |
| QRLEEQERRHREEKERRKKQTWEI | 4.68 |
| QRLEEQERRHREEKERRKKQYWEI | 4.52 |
| QRLEEQERRHREEKERRKKQNWEI | 4.67 |

| Variant | protein stability index |
| --- | --- |
| QRLEEQERRHREEKERRKKQCWEI | 4.17 |
| QRLEEQERRHREEKERRKKQHWEI | 4.39 |
| QRLEEQERRHREEKERRKKQDWEI | 5.22 |
| QRLEEQERRHREEKERRKKQAWEI | 4.43 |
| QRLEEQERRHREEKERRKKQLWEI | 4.53 |
| QRLEEQERRHREEKERRKKQPWEI | 4.6 |
| QRLEEQERRHREEKERRKKQEWEI | 5.39 |
| QRLEEQERRHREEKERRKKKQWEI | 4.22 |
| QRLEEQERRHREEKERRKKIQWEI | 4.6 |
| QRLEEQERRHREEKERRKKDQWEI | 4.94 |
| QRLEEQERRHREEKERRKKPQWEI | 4.68 |
| QRLEEQERRHREEKERRKKGQWEI | 4.65 |
| QRLEEQERRHREEKERRKKFQWEI | 4.19 |
| QRLEEQERRHREEKERRKKEQWEI | 4.8 |
| QRLEEQERRHREEKERRKKRQWEI | 4.12 |
| QRLEEQERRHREEKERRKKMQWEI | 3.86 |
| QRLEEQERRHREEKERRKKVQWEI | 3.64 |
| QRLEEQERRHREEKERRKKYQWEI | 4.19 |
| QRLEEQERRHREEKERRKKSQWEI | 4.8 |
| QRLEEQERRHREEKERRKKHQWEI | 4.16 |
| QRLEEQERRHREEKERRKKNQWEI | 4.56 |
| QRLEEQERRHREEKERRKKAQWEI | 4.34 |
| QRLEEQERRHREEKERRKKWQWEI | 4.36 |

| Variant | protein stability index |
| --- | --- |
| QRLEEQERRHREEKERRKKLQWEI | 4.35 |
| QRLEEQERRHREEKERRKKCQWEI | 4.77 |
| QRLEEQERRHREEKERRKKQQWES | 4.76 |
| QRLEEQERRHREEKERRKKQQWEC | 4.48 |
| QRLEEQERRHREEKERRKKQQWED | 5 |
| QRLEEQERRHREEKERRKKQQWEE | 5.04 |
| QRLEEQERRHREEKERRKKQQWEH | 4.46 |
| QRLEEQERRHREEKERRKKQQWER | 5.14 |
| QRLEEQERRHREEKERRKKQQWEW | 4.51 |
| QRLEEQERRHREEKERRKKQQWEF | 4.34 |
| QRLEEQERRHREEKERRKKQQWEA | 5 |
| QRLEEQERRHREEKERRKKQQWEV | 5.01 |
| QRLEEQERRHREEKERRKKQQWEQ | 4.39 |
| QRLEEQERRHREEKERRKKQQWEK | 4.25 |
| QRLEEQERRHREEKERRKKQQWEL | 4.78 |
| QRLEEQERRHREEKERRKKQQWET | 4.3 |
| QRLEEQERRHREEKERRKKQQWEP | 5 |
| QRLEEQERRHREEKERRKKQQWEN | 4.68 |
| QRLEEQERRHREEKERRKKQQWEM | 4.56 |
| QRLEEQERRHREEKERRKKQQWEG | 4.83 |
| QRLEEQERRHREEKERRKKQQWEY | 4.82 |

Variants of: B2
Test: as above
Conditions: c terminus: a fixed tail appended

| Variant | protein stability index |
| --- | --- |
| PYVRDWSHYFKIIEDLRAQIFANT | 2.34 |
| PVVRDWSHYFKIIEDLRAQIFANT | 3.24 |
| PAVRDWSHYFKIIEDLRAQIFANT | 2.59 |
| PFVRDWSHYFKIIEDLRAQIFANT | 2.55 |
| PPVRDWSHYFKIIEDLRAQIFANT | 3.51 |
| PWVRDWSHYFKIIEDLRAQIFANT | 1.82 |
| PNVRDWSHYFKIIEDLRAQIFANT | 2.41 |
| PMVRDWSHYFKIIEDLRAQIFANT | 3.56 |
| PHVRDWSHYFKIIEDLRAQIFANT | 2.17 |
| PLVRDWSHYFKIIEDLRAQIFANT | 3.67 |
| PSVRDWSHYFKIIEDLRAQIFANT | 2.42 |
| PGVRDWSHYFKIIEDLRAQIFANT | 2.29 |
| PKVRDWSHYFKIIEDLRAQIFANT | 2.08 |
| PIVRDWSHYFKIIEDLRAQIFANT | 2.92 |
| PEVRDWSHYFKIIEDLRAQIFANT | 2.63 |
| PCVRDWSHYFKIIEDLRAQIFANT | 2.67 |
| PDVRDWSHYFKIIEDLRAQIFANT | 2.04 |
| PTVRDWSHYFKIIEDLRAQIFANT | 2.31 |
| PRVRDWSHYFKIIEDLRAQIFANT | 1.77 |
| TQVRDWSHYFKIIEDLRAQIFANT | 2.25 |
| WQVRDWSHYFKIIEDLRAQIFANT | 2.86 |
| IQVRDWSHYFKIIEDLRAQIFANT | 2.24 |
| GQVRDWSHYFKIIEDLRAQIFANT | 1.94 |
| CQVRDWSHYFKIIEDLRAQIFANT | 2.3 |
| DQVRDWSHYFKIIEDLRAQIFANT | 2.83 |
| MQVRDWSHYFKIIEDLRAQIFANT | 2.12 |

| Variant | protein stability index |
| --- | --- |
| FQVRDWSHYFKIIEDLRAQIFANT | 1.7 |
| SQVRDWSHYFKIIEDLRAQIFANT | 2.02 |
| RQVRDWSHYFKIIEDLRAQIFANT | 2.86 |
| AQVRDWSHYFKIIEDLRAQIFANT | 1.31 |
| HQVRDWSHYFKIIEDLRAQIFANT | 1.99 |
| VQVRDWSHYFKIIEDLRAQIFANT | 2.2 |
| EQVRDWSHYFKIIEDLRAQIFANT | 2.13 |
| YQVRDWSHYFKIIEDLRAQIFANT | 2.22 |
| LQVRDWSHYFKIIEDLRAQIFANT | 1.73 |
| QQVRDWSHYFKIIEDLRAQIFANT | 2.38 |
| KQVRDWSHYFKIIEDLRAQIFANT | 2.42 |
| NQVRDWSHYFKIIEDLRAQIFANT | 2.5 |
| PQFRDWSHYFKIIEDLRAQIFANT | 2.24 |
| PQQRDWSHYFKIIEDLRAQIFANT | 2.52 |
| PQKRDWSHYFKIIEDLRAQIFANT | 1.79 |
| PQNRDWSHYFKIIEDLRAQIFANT | 2.06 |
| PQIRDWSHYFKIIEDLRAQIFANT | 2.05 |
| PQDRDWSHYFKIIEDLRAQIFANT | 2.39 |
| PQERDWSHYFKIIEDLRAQIFANT | 3.61 |
| PQPRDWSHYFKIIEDLRAQIFANT | 2.46 |
| PQARDWSHYFKIIEDLRAQIFANT | 1.71 |
| PQHRDWSHYFKIIEDLRAQIFANT | 1.94 |
| PQGRDWSHYFKIIEDLRAQIFANT | 2.13 |
| PQLRDWSHYFKIIEDLRAQIFANT | 2.88 |
| PQCRDWSHYFKIIEDLRAQIFANT | 2.41 |
| PQMRDWSHYFKIIEDLRAQIFANT | 1.84 |
